Reference: patent CN114057881A (HANGZHOU XIANZHI BIOTECHNOLOGY CO LTD, dated 2022)

Biological target: T1, 牛血清白蛋白 (bovine, UniProt P02769 25-607)
T1 construct: Carrier protein control, without ketamine, in the ELISA screen; also called BSA
Experiment: ELISA, BSA coated at 1 μg/mL, purified antibody, HRP secondary antibody, OD450

T1 sequence (P02769 25-607 limits assumed): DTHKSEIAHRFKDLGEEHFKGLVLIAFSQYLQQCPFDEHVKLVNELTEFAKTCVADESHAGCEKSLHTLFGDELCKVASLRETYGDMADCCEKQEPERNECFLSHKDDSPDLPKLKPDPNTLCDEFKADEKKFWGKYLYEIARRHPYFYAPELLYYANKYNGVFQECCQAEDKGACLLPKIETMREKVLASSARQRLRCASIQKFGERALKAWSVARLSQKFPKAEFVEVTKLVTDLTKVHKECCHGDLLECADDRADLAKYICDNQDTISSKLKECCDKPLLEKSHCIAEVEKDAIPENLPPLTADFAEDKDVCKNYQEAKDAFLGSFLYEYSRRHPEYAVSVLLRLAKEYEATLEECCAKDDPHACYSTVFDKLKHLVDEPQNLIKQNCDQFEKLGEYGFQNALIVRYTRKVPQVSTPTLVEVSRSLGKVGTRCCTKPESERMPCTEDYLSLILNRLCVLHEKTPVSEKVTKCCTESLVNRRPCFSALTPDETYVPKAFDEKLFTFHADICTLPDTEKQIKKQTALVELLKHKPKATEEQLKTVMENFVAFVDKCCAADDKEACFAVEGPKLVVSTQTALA

| Binder | binding result |
| --- | --- |
| 抗氯胺酮(KET)特异性抗体4A1 (antibody, V domains shown, also called 4A1单抗) VH: EVRLEESGGGLVQPGGSMKLSCVASGFTFSNYWMNWVRQSPEKGLEWVDEIKLKSNNYETHCVESVKGRFTISRDDSKSSVYLQMNNLRAEDTGIYYCARRGYGTYYAMDYWGQGTSVIVSS VL: DVQITQSPSYLAASPGETITINCRASKSIRKYLAWYQEKPGKTNKLLIYSGSTLRSGTPSRFSGSGSGTDFTLTISSLEPEDFAMYYCQQHNEYPYTFGGGTKLEIKR | no binding |
| 抗氯胺酮(KET)特异性抗体6B2 (antibody, V domains shown, also called 6B2单抗) VH: EVQLQQSGAELLKPGASVKLSCTASGFNIKDTYIHWVKQRPEQGLEWIGRIDPANGHTYYDPQFQGKATLTADTSSNTAYLQLSSLTSEDSAIYYCARFGEDWGQGTLVTVSA VL: not shown | no binding |
